Key:
[1] = target: T1, full length human c-Met on cells (human, UniProt P08581 25-1390); experiment: cell-based or functional assay
[2] = target: rhesus c-Met on 4MBr-5 cells (rhesus); experiment: cell-based or functional assay
[3] = target: T1, full length human c-Met on cells; experiment: cell-based or functional assay; remark: listed apart in the source
[4] = target: rhesus c-Met on 4MBr-5 cells (rhesus); experiment: cell-based or functional assay; remark: listed apart in the source
[5] = target: T1, full length human c-Met on cells; experiment: flow cytometry, Fab on GTL-16 cells
Description: (§1) In order to further characterize the anti-c-Met antibodies, the affinity to full length human and cynomolgus c-Met is determined. GTL16, CHO cells overexpressing cynomolgus c-Met or rhesus 4 MBr-5 cells are washed, trypsinised, and suspended in PBS containing 3% FCS (3% FCS/PBS) at 4-C. 2-5×10⁵ cells/sample are resuspended in 140 μl of 3% FCS//PBS containing 5 μg/ml of purified anti-cMet Fabs or serial dilutions thereof. As a positive control 5 μg/ml of DO24 (mouse IgG2a), anti-human c-Met is used. The cells are incubated for 30-60 minutes at 4° C. before being pelleted by centrifugation for 2 min at 2000 rpm (716 g) at 4° C. and washed in 200 μl of in chilled 3% FCS/PBS. The cells are again pelleted by centrifugation and the PBS gently removed. Cells are resuspended in 100 μl of goat anti-human IgG (H+L) PE conjugated (Jackson Cat No. 109-116-088) diluted 1:200 in 3% FCS/0.02% NaN₃/PBS; For the positive control goat anti-mouse IgG (H+L)-PE conjugated (Jackson Cat No. 115-116-146) diluted 1:200 in 3% FCS/PBS is used. Samples are incubated in the dark for 30-60 min at 4° C. Following centrifugation and washing in 200 μl of 3% FCS/0.02%/NaN₃/PBS the cells are resuspended in 100 μl of 3% FCS/PBS and assayed using FACS-array or FACS-Calibur.

[6] = target: T2, cynomolgus c-Met on CHO cells (cynomolgus, UniProt A0A2K5UM36 25-1381, The natural precursor is cleaved into disulfide-linked alpha and beta subunits. It is given here as one mature chain, following the entry's CHAIN feature.); experiment: flow cytometry, Fab on CHO-cyno c-Met cells
T2 construct: also called cyno c-Met; CHO-cMet cyno
T2 sequence (A0A2K5UM36 entry or part of it limits assumed): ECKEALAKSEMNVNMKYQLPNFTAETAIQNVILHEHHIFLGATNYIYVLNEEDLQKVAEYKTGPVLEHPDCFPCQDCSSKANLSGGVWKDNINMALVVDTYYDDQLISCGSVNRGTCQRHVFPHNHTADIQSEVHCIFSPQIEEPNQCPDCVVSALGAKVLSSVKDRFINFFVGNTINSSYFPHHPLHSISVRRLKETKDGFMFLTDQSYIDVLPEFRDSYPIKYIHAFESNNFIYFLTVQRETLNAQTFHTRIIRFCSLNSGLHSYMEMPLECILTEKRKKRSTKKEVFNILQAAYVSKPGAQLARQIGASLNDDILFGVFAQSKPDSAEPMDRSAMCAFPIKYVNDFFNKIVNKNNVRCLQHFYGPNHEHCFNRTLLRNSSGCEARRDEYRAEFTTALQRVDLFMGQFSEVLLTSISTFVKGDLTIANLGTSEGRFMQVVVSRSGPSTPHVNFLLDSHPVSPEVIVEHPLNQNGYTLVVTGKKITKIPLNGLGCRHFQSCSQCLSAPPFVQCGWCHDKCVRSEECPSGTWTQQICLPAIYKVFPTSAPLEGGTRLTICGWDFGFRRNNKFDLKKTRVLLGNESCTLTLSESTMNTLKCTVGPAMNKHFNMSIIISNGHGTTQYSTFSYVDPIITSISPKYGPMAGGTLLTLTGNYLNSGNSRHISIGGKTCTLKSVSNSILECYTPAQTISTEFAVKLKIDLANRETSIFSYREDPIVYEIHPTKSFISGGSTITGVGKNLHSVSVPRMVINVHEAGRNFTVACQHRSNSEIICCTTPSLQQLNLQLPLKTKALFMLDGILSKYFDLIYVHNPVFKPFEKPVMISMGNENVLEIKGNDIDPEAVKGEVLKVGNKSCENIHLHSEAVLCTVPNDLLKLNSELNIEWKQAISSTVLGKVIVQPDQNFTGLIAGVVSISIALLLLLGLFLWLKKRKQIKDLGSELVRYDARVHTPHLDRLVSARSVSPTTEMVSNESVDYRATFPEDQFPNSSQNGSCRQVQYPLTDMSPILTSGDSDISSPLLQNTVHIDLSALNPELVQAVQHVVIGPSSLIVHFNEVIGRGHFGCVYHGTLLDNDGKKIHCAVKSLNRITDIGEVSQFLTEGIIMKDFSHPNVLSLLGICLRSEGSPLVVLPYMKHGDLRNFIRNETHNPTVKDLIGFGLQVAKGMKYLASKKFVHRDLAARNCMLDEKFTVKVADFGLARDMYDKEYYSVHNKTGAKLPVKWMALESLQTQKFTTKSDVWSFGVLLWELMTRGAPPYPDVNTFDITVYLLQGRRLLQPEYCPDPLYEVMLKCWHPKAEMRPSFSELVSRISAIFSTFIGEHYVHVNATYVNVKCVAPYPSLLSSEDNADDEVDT
Description: as §1

[7] = target: T1, full length human c-Met on cells; experiment: flow cytometry, Fab titration on GTL-16 cells
Description: as §1

recombinant human c-Met [8] = target: T3, recombinant human c-Met (human, UniProt P08581 25-932, limits assumed); experiment: SPR (BIAcore), Fab on immobilised human c-Met
T3 construct: Soluble recombinant protein: immobilised on the CM5 chip in Biacore, in solution in the equilibrium titration; The precursor is cleaved into disulfide-linked alpha and beta subunits; also called Hepatocyte Growth Factor Receptor
T3 sequence (P08581 25-932 limits assumed): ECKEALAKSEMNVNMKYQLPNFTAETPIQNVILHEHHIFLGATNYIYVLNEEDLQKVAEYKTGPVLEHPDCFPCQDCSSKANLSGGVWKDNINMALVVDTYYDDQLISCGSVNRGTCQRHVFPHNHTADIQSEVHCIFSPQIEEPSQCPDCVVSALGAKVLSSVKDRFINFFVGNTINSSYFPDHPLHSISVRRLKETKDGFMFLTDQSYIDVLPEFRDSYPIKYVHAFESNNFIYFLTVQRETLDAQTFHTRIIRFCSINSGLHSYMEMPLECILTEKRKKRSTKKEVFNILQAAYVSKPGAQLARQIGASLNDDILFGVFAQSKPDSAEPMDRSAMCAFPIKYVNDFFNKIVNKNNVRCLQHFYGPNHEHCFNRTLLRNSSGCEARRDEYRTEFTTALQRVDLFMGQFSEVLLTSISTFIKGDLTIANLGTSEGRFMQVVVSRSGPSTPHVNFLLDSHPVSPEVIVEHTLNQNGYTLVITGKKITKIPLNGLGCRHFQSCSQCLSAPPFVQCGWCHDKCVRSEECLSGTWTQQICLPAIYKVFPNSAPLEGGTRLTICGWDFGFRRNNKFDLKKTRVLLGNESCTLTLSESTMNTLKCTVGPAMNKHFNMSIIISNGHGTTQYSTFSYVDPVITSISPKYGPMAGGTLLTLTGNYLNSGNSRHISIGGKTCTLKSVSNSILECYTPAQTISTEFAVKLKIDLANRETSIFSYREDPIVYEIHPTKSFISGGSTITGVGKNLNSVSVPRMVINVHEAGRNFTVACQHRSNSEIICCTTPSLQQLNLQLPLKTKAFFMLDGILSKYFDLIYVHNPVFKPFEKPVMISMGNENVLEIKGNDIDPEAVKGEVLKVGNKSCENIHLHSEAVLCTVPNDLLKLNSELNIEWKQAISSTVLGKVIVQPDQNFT
Description: (§2) Using these clones, kinetic SPR analysis is performed on a CM5 chip (Biacore, Sweden) which had been coated with a density of ˜400 RU of either recombinant human c-Met, in 10 mM Na-acetate pH 4.5 using standard EDC-NHS amine coupling chemistry. […] PBS (136 mM NaCl, 2.7 mM KCl, 10 mM Na2HPO4 , 1.76 mM KH2PO4 pH 7.4) is used as the running buffer. The Fab preparations are applied in concentration series of 16-500 nM at a flow rate of 20 μl/min. Association phase is set to 60 s and dissociation phase to 120 s.

[9] = target: T4, rhesus c-Met on 4MBr-5 cells (rhesus); experiment: flow cytometry, Fab titration on rhesus 4MBr-5 cells
T4 construct: whole, on cells
Description: as §1

recombinant human c-Met [10] = target: T3, recombinant human c-Met; experiment: SPR (BIAcore), c-Met amine-coupled on CM5 chip, Fab 16-500 nM as analyte
Description: as §2

[11] = target: T4, rhesus c-Met on 4MBr-5 cells; experiment: cell-based or functional assay; remark: listed apart in the source
[12] = target: T1, full length human c-Met on cells; experiment: cell-based or functional assay; remark: listed apart in the source
[13] = target: T1, full length human c-Met on cells; experiment: cell-based or functional assay; remark: listed apart in the source

T1 sequence (P08581 25-1390): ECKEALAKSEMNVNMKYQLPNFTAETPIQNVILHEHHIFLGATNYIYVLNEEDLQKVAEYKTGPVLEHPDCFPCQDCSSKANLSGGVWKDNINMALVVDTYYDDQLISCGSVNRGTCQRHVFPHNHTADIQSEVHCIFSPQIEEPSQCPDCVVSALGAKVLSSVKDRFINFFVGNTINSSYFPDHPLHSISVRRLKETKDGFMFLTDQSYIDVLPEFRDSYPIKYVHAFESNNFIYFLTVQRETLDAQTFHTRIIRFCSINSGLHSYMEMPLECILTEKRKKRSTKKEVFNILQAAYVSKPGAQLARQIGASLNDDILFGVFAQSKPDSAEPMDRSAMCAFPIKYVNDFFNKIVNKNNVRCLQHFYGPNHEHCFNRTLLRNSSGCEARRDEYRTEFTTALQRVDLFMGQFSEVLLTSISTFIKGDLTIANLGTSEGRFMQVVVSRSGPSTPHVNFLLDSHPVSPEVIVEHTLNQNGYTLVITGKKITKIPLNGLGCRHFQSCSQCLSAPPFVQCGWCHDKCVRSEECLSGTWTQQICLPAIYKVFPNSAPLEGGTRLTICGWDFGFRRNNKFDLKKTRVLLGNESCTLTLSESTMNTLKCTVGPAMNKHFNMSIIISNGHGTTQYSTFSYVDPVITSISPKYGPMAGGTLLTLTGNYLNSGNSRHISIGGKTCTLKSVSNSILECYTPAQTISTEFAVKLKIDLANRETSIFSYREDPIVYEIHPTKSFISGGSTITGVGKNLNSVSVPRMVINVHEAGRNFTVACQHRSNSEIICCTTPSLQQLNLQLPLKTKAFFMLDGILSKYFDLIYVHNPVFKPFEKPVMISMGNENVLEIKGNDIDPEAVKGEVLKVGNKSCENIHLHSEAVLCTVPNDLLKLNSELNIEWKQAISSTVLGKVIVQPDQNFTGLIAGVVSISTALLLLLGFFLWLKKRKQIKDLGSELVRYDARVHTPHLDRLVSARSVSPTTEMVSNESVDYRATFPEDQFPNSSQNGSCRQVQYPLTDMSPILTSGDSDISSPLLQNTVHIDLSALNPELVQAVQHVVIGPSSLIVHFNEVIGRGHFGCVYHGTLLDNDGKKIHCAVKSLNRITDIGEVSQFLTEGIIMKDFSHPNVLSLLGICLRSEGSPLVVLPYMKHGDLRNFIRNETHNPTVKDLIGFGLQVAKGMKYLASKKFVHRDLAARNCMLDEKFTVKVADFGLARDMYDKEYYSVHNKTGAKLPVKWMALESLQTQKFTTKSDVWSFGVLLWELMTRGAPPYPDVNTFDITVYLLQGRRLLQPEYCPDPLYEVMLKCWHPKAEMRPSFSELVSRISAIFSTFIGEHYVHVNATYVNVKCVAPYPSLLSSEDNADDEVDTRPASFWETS

| EC50 [nM] Inhibition of HGF driven migration NCI-H441 [1] | EC50 [nM] Inhibition of HGF driven proliferation 4MBr-5 [2] | EC50 [nM] NCI-H441 Migration IgG [3] | EC50 [nM] 4Mbr-5 Proliferation IgG [4] | EC50 [nM] Inhibition of HGF driven proliferation 4MBr-5 in 10% serum [11] | EC50 [nM] Inhibition of HGF driven migration NCI-H441 in 1% serum [12] | EC50 [nM] Inhibition of HGF stimulated c-Met autophosphorylation in A549 [13] | Binder | other results |
| --- | --- | --- | --- | --- | --- | --- | --- | --- |
| 0.14 nM | 150 nM | 0.14 nM | 150 nM | – | – | – | 04537 in IgG format (antibody, V domains shown) VH: QVQLVQSGAEVKKPGESLKISCKGSGYSFSNYWIGWVRQMPGKGLEWMGFIFPDTSYTRYSPSFQGQVTISADKSISTAYLQWSSLKASDTAMYYCARVKLITDYWGQGTLVTVSS VL: DIELTQPPSVSVAPGQTARISCSGDSLRSYFVSWYQQKPGQAPVLVIYDDDDRPSGIPERFSGSNSGNTATLTISGTQAEDEADYYCASWDTLSDVEVFGGGTKLTVLG | – |
| 0.61 nM | 4 nM | 0.61 nM | 4 nM | – | – | – | 04536 in IgG format (antibody, V domains shown) VH: QVQLVQSGAEVKKPGASVKVSCKASGYTFTGYYMNWVRQAPGQGLEWMGIINPWTGNTNYAQKFQGRVTMTRDTSISTAYMELSSLRSEDTAVYYCARDPGFFYYTPSDLWGQGTLVTVSS VL: DIELTQPPSVSVAPGQTARISCSGDSIGNKYVHWYQQKPGQAPVLVIYADSDRPSGIPERFSGSNSGNTATLTISGTQAEDEADYYCQAYDSSMLRVFGGGTKLTVLG | – |

Continued, binder first:

| Binder | EC50 [nM] Inhibition of HGF driven migration NCI-H441 [1] | EC50 [nM] Inhibition of HGF driven proliferation 4MBr-5 [2] | EC50 [nM] NCI-H441 Migration IgG [3] | EC50 [nM] 4Mbr-5 Proliferation IgG [4] | EC50 [nM] Inhibition of HGF driven proliferation 4MBr-5 in 10% serum [11] | EC50 [nM] Inhibition of HGF driven migration NCI-H441 in 1% serum [12] | EC50 [nM] Inhibition of HGF stimulated c-Met autophosphorylation in A549 [13] | other results |
| --- | --- | --- | --- | --- | --- | --- | --- | --- |
| 04537 (parental anti-cMet Fab antibody) (Fab, V domains shown, carries two C-terminal tags (FLAG and 6xHis)) VH: QVQLVQSGAEVKKPGESLKISCKGSGYSFSNYWIGWVRQMPGKGLEWMGFIFPDTSYTRYSPSFQGQVTISADKSISTAYLQWSSLKASDTAMYYCARVKLITDYWGQGTLVTVSS VL: DIELTQPPSVSVAPGQTARISCSGDSLRSYFVSWYQQKPGQAPVLVIYDDDDRPSGIPERFSGSNSGNTATLTISGTQAEDEADYYCASWDTLSDVEVFGGGTKLTVLG | – | – | – | – | – | – | – | Kd [5]: 1.5 nM; Kd [6]: 12.7 nM; Kd [7]: 2.6 nM; Kd (recombinant human c-Met [8]): 1.7 nM; Kd [9]: 0.1 nM; Kd (recombinant human c-Met [10]): 1.7 nM |
| 04687 in IgG format (antibody, V domains shown) VH: QVQLVQSGAEVKKPGSSVKVSCKASGGTFSSYAISWVRQAPGQGLEWMGGIDPFGTANYAQKFQGRVTITADESTSTAYMELSSLRSEDTAVYYCARVYQDVWGQGTLVTVSS VL: DIVMTQSPDSLAVSLGERATINCRSSQSILYGINNNFLGWYQQKPGQPPKLLIYWASTRESGVPDRFSGSGSGTDFTLTISSLQAEDVAVYYCQQYYNHPHTFGQGTKVEIKR | 1.68 nM | 6 nM | 1.68 nM | 6 nM | – | – | – | – |
| 05098 in IgG format (antibody, V domains shown) VH: QVQLVQSGAEVKKPGSSVKVSCKASGGTFSSYAISWVRQAPGQGLEWMGGIDPFGTANYAQKFQGRVTITADESTSTAYMELSSLRSEDTAVYYCARVYQDVWGQGTLVTVSS VL: DIVMTQSPDSLAVSLGERATINCRSSQSILYGINNNFLGWYQQKPGQPPKLLIYWASTRESGVPDRFSGSGSGTDFTLTISSLQAEDVAVYYCLQYSDEPWTFGQGTKVEIKR | – | – | – | – | 0.5 nM | 0.73 nM | 0.419 nM | – |
| 05185 in IgG format (antibody, V domains shown) VH: QVQLVQSGAEVKKPGSSVKVSCKASGGTFSSYAISWVRQAPGQGLEWMGGIDPIMGTEYAQKFQGRVTITADESTSTAYMELSSLRSEDTAVYYCARVYQDVWGQGTLVTVSS VL: DIVMTQSPDSLAVSLGERATINCRSSQSILYGINNNFLGWYQQKPGQPPKLLIYWASTRESGVPDRFSGSGSGTDFTLTISSLQAEDVAVYYCQQYAYEPNTFGQGTKVEIKR | – | – | – | – | 0.13 nM | 1.2 nM | 0.219 nM | – |
| 05097 in IgG format (antibody, V domains shown) VH: QVQLVQSGAEVKKPGSSVKVSCKASGGTFSSYAISWVRQAPGQGLEWMGGIDPFGTANYAQKFQGRVTITADESTSTAYMELSSLRSEDTAVYYCARVYQDVWGQGTLVTVSS VL: DIVMTQSPDSLAVSLGERATINCRSSQSILYGINNNFLGWYQQKPGQPPKLLIYWASTRESGVPDRFSGSGSGTDFTLTISSLQAEDVAVYYCQQYAFGWTFGQGTKVEIKR | – | – | – | – | 1.6 nM | 0.76 nM | 0.166 nM | – |
| 04690 (parental anti-cMet Fab antibody) (Fab, V domains shown, carries two C-terminal tags (FLAG and 6xHis)) VH: QVQLQQSGPGLVKPSQTLSLTCAISGDSVSSNSAAWGWIRQSPGRGLEWLGRIYYRSKWVNDYAVSVKSRITINPDTSKNQFSLQLNSVTPEDTAVYYCARQGAVYPGPYGFDVWGQGTLVTVSS VL: DIELTQPPSVSVAPGQTARISCSGDKLGSYFVYWYQQKPGQAPVLVIYDDDNRPSGIPERFSGSNSGNTATLTISGTQAEDEADYYCQSFGISNFYVFGGGTKLTVLG | – | – | – | – | – | – | – | Kd [7]: 1.1 nM; Kd [9]: 0.1 nM; Kd (recombinant human c-Met [10]): 66 nM |
| 04541 in IgG format (antibody, V domains shown) VH: QVQLQESGPGLVKPGETLSLTCTVSGGSISSSSYYWNWIRQAPGKGLEWIGEIYFGWTYYNPSLKGRVTISVDTSKNQFSLKLSSVTAEDTAVYYCARGYEFHGYTTFDYWGQGTLVTVSS VL: DIELTQPPSVSVAPGQTARISCSGDNIGSYYVYWYQQKPGQAPVLVIYDDNDRPSGIPERFSGSNSGNTATLTISGTQAEDEADYYCQSYDFPSIVFGGGTKLTVLG | 0.27 nM | 200 nM | 0.27 nM | 200 nM | – | – | – | – |
| 04541 (parental anti-cMet Fab antibody) (Fab, V domains shown, carries two C-terminal tags (FLAG and 6xHis)) VH: QVQLQESGPGLVKPGETLSLTCTVSGGSISSSSYYWNWIRQAPGKGLEWIGEIYFGWTYYNPSLKGRVTISVDTSKNQFSLKLSSVTAEDTAVYYCARGYEFHGYTTFDYWGQGTLVTVSS VL: DIELTQPPSVSVAPGQTARISCSGDNIGSYYVYWYQQKPGQAPVLVIYDDNDRPSGIPERFSGSNSGNTATLTISGTQAEDEADYYCQSYDFPSIVFGGGTKLTVLG | – | – | – | – | – | – | – | Kd [5]: 1.7 nM; Kd [6]: 0.6 nM; Kd [7]: 0.5 nM; Kd (recombinant human c-Met [8]): 2.6 nM; Kd [9]: 0.1 nM; Kd (recombinant human c-Met [10]): 2.6 nM |
| 05091 in IgG format (antibody, V domains shown) VH: QVQLVQSGAEVKKPGASVKVSCKASGYTFTGYYMNWVRQAPGQGLEWMGIINPWTGNTNYAQKFQGRVTMTRDTSISTAYMELSSLRSEDTAVYYCARDPGFFYYTPSDLWGQGTLVTVSS VL: DIELTQPPSVSVAPGQTARISCSGDSIGNKYVHWYQQKPGQAPVLVIYADSDRPSGIPERFSGSNSGNTATLTISGTQAEDEADYYCQSYAHYHDIWVFGGGTKLTVLG | – | – | – | – | 1.3 nM | 0.61 nM | 0.193 nM | – |
